Assay results as given in patent publication US20180155451A1 (published 2018).

B1: GpH7-A5/GpH7-B3 variant K326_19Q/GpL16-k0 (antibody, human IgG1, kappa)
heavy 1: not shown
heavy 2: not shown
light: DIVMTQSPLSLPVTPGEPASISCQASESLVHSNRNTYLHWYLQKPGQSPQLLIYKVSNRFSGVPDRFSGSGSGTDFTLKISRVEAEDVGVYYCSQNTHVPPTFGQGTKVEIERTVAAPSVFIFPPSDEQLKSGTASVVCLLNNFYPREAKVQWKVDNALQSGNSQESVTEQDSKDSTYSLSSTLTLSKADYEKHKVYACEVTHQGLSSPVTKSFNRGEC
notes: heterodimerized, mutation in one H chain only; also called He Ab
B2: GpH7-A5/GpH7-B3 variant T335_19Q/GpL16-k0 (antibody, human IgG1, kappa)
heavy 1: not shown
heavy 2: not shown
light: DIVMTQSPLSLPVTPGEPASISCQASESLVHSNRNTYLHWYLQKPGQSPQLLIYKVSNRFSGVPDRFSGSGSGTDFTLKISRVEAEDVGVYYCSQNTHVPPTFGQGTKVEIERTVAAPSVFIFPPSDEQLKSGTASVVCLLNNFYPREAKVQWKVDNALQSGNSQESVTEQDSKDSTYSLSSTLTLSKADYEKHKVYACEVTHQGLSSPVTKSFNRGEC
notes: as for B1
B3: GpH7-A5/GpH7-B3 variant S324_02A/GpL16-k0 (antibody, human IgG1, kappa)
heavy 1: not shown
heavy 2: not shown
light: DIVMTQSPLSLPVTPGEPASISCQASESLVHSNRNTYLHWYLQKPGQSPQLLIYKVSNRFSGVPDRFSGSGSGTDFTLKISRVEAEDVGVYYCSQNTHVPPTFGQGTKVEIERTVAAPSVFIFPPSDEQLKSGTASVVCLLNNFYPREAKVQWKVDNALQSGNSQESVTEQDSKDSTYSLSSTLTLSKADYEKHKVYACEVTHQGLSSPVTKSFNRGEC
notes: as for B1
B4: GpH7-A5/GpH7-B3 variant L235_20W/GpL16-k0 (antibody, human IgG1, kappa)
heavy 1: not shown
heavy 2: not shown
light: DIVMTQSPLSLPVTPGEPASISCQASESLVHSNRNTYLHWYLQKPGQSPQLLIYKVSNRFSGVPDRFSGSGSGTDFTLKISRVEAEDVGVYYCSQNTHVPPTFGQGTKVEIERTVAAPSVFIFPPSDEQLKSGTASVVCLLNNFYPREAKVQWKVDNALQSGNSQESVTEQDSKDSTYSLSSTLTLSKADYEKHKVYACEVTHQGLSSPVTKSFNRGEC
notes: as for B1
B5: GpH7-A5/GpH7-B3 variant S267_02A/GpL16-k0 (antibody, human IgG1, kappa)
heavy 1: not shown
heavy 2: not shown
light: DIVMTQSPLSLPVTPGEPASISCQASESLVHSNRNTYLHWYLQKPGQSPQLLIYKVSNRFSGVPDRFSGSGSGTDFTLKISRVEAEDVGVYYCSQNTHVPPTFGQGTKVEIERTVAAPSVFIFPPSDEQLKSGTASVVCLLNNFYPREAKVQWKVDNALQSGNSQESVTEQDSKDSTYSLSSTLTLSKADYEKHKVYACEVTHQGLSSPVTKSFNRGEC
notes: as for B1
B6: GpH7-A5/GpH7-B3 variant T335_16H/GpL16-k0 (antibody, human IgG1, kappa)
heavy 1: not shown
heavy 2: not shown
light: DIVMTQSPLSLPVTPGEPASISCQASESLVHSNRNTYLHWYLQKPGQSPQLLIYKVSNRFSGVPDRFSGSGSGTDFTLKISRVEAEDVGVYYCSQNTHVPPTFGQGTKVEIERTVAAPSVFIFPPSDEQLKSGTASVVCLLNNFYPREAKVQWKVDNALQSGNSQESVTEQDSKDSTYSLSSTLTLSKADYEKHKVYACEVTHQGLSSPVTKSFNRGEC
notes: as for B1
B7: GpH7-A5/GpH7-B3 variant T335_15Y/GpL16-k0 (antibody, human IgG1, kappa)
heavy 1: not shown
heavy 2: not shown
light: DIVMTQSPLSLPVTPGEPASISCQASESLVHSNRNTYLHWYLQKPGQSPQLLIYKVSNRFSGVPDRFSGSGSGTDFTLKISRVEAEDVGVYYCSQNTHVPPTFGQGTKVEIERTVAAPSVFIFPPSDEQLKSGTASVVCLLNNFYPREAKVQWKVDNALQSGNSQESVTEQDSKDSTYSLSSTLTLSKADYEKHKVYACEVTHQGLSSPVTKSFNRGEC
notes: as for B1
B8: GpH7-A5/GpH7-B3 variant T335_07I/GpL16-k0 (antibody, human IgG1, kappa)
heavy 1: not shown
heavy 2: not shown
light: DIVMTQSPLSLPVTPGEPASISCQASESLVHSNRNTYLHWYLQKPGQSPQLLIYKVSNRFSGVPDRFSGSGSGTDFTLKISRVEAEDVGVYYCSQNTHVPPTFGQGTKVEIERTVAAPSVFIFPPSDEQLKSGTASVVCLLNNFYPREAKVQWKVDNALQSGNSQESVTEQDSKDSTYSLSSTLTLSKADYEKHKVYACEVTHQGLSSPVTKSFNRGEC
notes: as for B1
B9: GpH7-A5/GpH7-B3 variant K334_04F/GpL16-k0 (antibody, human IgG1, kappa)
heavy 1: not shown
heavy 2: not shown
light: DIVMTQSPLSLPVTPGEPASISCQASESLVHSNRNTYLHWYLQKPGQSPQLLIYKVSNRFSGVPDRFSGSGSGTDFTLKISRVEAEDVGVYYCSQNTHVPPTFGQGTKVEIERTVAAPSVFIFPPSDEQLKSGTASVVCLLNNFYPREAKVQWKVDNALQSGNSQESVTEQDSKDSTYSLSSTLTLSKADYEKHKVYACEVTHQGLSSPVTKSFNRGEC
notes: as for B1
B10: GpH7-A5/GpH7-B3 variant L235_15Y/GpL16-k0 (antibody, human IgG1, kappa)
heavy 1: not shown
heavy 2: not shown
light: DIVMTQSPLSLPVTPGEPASISCQASESLVHSNRNTYLHWYLQKPGQSPQLLIYKVSNRFSGVPDRFSGSGSGTDFTLKISRVEAEDVGVYYCSQNTHVPPTFGQGTKVEIERTVAAPSVFIFPPSDEQLKSGTASVVCLLNNFYPREAKVQWKVDNALQSGNSQESVTEQDSKDSTYSLSSTLTLSKADYEKHKVYACEVTHQGLSSPVTKSFNRGEC
notes: as for B1
B11: GpH7-A5/GpH7-B3 variant S337_10E/GpL16-k0 (antibody, human IgG1, kappa)
heavy 1: not shown
heavy 2: not shown
light: DIVMTQSPLSLPVTPGEPASISCQASESLVHSNRNTYLHWYLQKPGQSPQLLIYKVSNRFSGVPDRFSGSGSGTDFTLKISRVEAEDVGVYYCSQNTHVPPTFGQGTKVEIERTVAAPSVFIFPPSDEQLKSGTASVVCLLNNFYPREAKVQWKVDNALQSGNSQESVTEQDSKDSTYSLSSTLTLSKADYEKHKVYACEVTHQGLSSPVTKSFNRGEC
notes: as for B1
B12: GpH7-A5/GpH7-B3 variant L235_04F/GpL16-k0 (antibody, human IgG1, kappa)
heavy 1: not shown
heavy 2: not shown
light: DIVMTQSPLSLPVTPGEPASISCQASESLVHSNRNTYLHWYLQKPGQSPQLLIYKVSNRFSGVPDRFSGSGSGTDFTLKISRVEAEDVGVYYCSQNTHVPPTFGQGTKVEIERTVAAPSVFIFPPSDEQLKSGTASVVCLLNNFYPREAKVQWKVDNALQSGNSQESVTEQDSKDSTYSLSSTLTLSKADYEKHKVYACEVTHQGLSSPVTKSFNRGEC
notes: as for B1
B13: GpH7-A5/GpH7-B3 variant S239_09D/GpL16-k0 (antibody, human IgG1, kappa)
heavy 1: not shown
heavy 2: not shown
light: DIVMTQSPLSLPVTPGEPASISCQASESLVHSNRNTYLHWYLQKPGQSPQLLIYKVSNRFSGVPDRFSGSGSGTDFTLKISRVEAEDVGVYYCSQNTHVPPTFGQGTKVEIERTVAAPSVFIFPPSDEQLKSGTASVVCLLNNFYPREAKVQWKVDNALQSGNSQESVTEQDSKDSTYSLSSTLTLSKADYEKHKVYACEVTHQGLSSPVTKSFNRGEC
notes: as for B1
B14: GpH7-A5/GpH7-B3 variant T335_01G/GpL16-k0 (antibody, human IgG1, kappa)
heavy 1: not shown
heavy 2: not shown
light: DIVMTQSPLSLPVTPGEPASISCQASESLVHSNRNTYLHWYLQKPGQSPQLLIYKVSNRFSGVPDRFSGSGSGTDFTLKISRVEAEDVGVYYCSQNTHVPPTFGQGTKVEIERTVAAPSVFIFPPSDEQLKSGTASVVCLLNNFYPREAKVQWKVDNALQSGNSQESVTEQDSKDSTYSLSSTLTLSKADYEKHKVYACEVTHQGLSSPVTKSFNRGEC
notes: as for B1
B15: GpH7-A5/GpH7-B3 variant L328_20W/GpL16-k0 (antibody, human IgG1, kappa)
heavy 1: not shown
heavy 2: not shown
light: DIVMTQSPLSLPVTPGEPASISCQASESLVHSNRNTYLHWYLQKPGQSPQLLIYKVSNRFSGVPDRFSGSGSGTDFTLKISRVEAEDVGVYYCSQNTHVPPTFGQGTKVEIERTVAAPSVFIFPPSDEQLKSGTASVVCLLNNFYPREAKVQWKVDNALQSGNSQESVTEQDSKDSTYSLSSTLTLSKADYEKHKVYACEVTHQGLSSPVTKSFNRGEC
notes: as for B1
B16: GpH7-A5/GpH7-B3 variant L328_06M/GpL16-k0 (antibody, human IgG1, kappa)
heavy 1: not shown
heavy 2: not shown
light: DIVMTQSPLSLPVTPGEPASISCQASESLVHSNRNTYLHWYLQKPGQSPQLLIYKVSNRFSGVPDRFSGSGSGTDFTLKISRVEAEDVGVYYCSQNTHVPPTFGQGTKVEIERTVAAPSVFIFPPSDEQLKSGTASVVCLLNNFYPREAKVQWKVDNALQSGNSQESVTEQDSKDSTYSLSSTLTLSKADYEKHKVYACEVTHQGLSSPVTKSFNRGEC
notes: as for B1
B17: GpH7-A5/GpH7-B3 variant T335_10E/GpL16-k0 (antibody, human IgG1, kappa)
heavy 1: not shown
heavy 2: not shown
light: DIVMTQSPLSLPVTPGEPASISCQASESLVHSNRNTYLHWYLQKPGQSPQLLIYKVSNRFSGVPDRFSGSGSGTDFTLKISRVEAEDVGVYYCSQNTHVPPTFGQGTKVEIERTVAAPSVFIFPPSDEQLKSGTASVVCLLNNFYPREAKVQWKVDNALQSGNSQESVTEQDSKDSTYSLSSTLTLSKADYEKHKVYACEVTHQGLSSPVTKSFNRGEC
notes: as for B1
B18: GpH7-A5/GpH7-B3 variant L328_14T/GpL16-k0 (antibody, human IgG1, kappa)
heavy 1: not shown
heavy 2: not shown
light: DIVMTQSPLSLPVTPGEPASISCQASESLVHSNRNTYLHWYLQKPGQSPQLLIYKVSNRFSGVPDRFSGSGSGTDFTLKISRVEAEDVGVYYCSQNTHVPPTFGQGTKVEIERTVAAPSVFIFPPSDEQLKSGTASVVCLLNNFYPREAKVQWKVDNALQSGNSQESVTEQDSKDSTYSLSSTLTLSKADYEKHKVYACEVTHQGLSSPVTKSFNRGEC
notes: as for B1
B19: GpH7-A5/GpH7-B3 variant T335_13S/GpL16-k0 (antibody, human IgG1, kappa)
heavy 1: not shown
heavy 2: not shown
light: DIVMTQSPLSLPVTPGEPASISCQASESLVHSNRNTYLHWYLQKPGQSPQLLIYKVSNRFSGVPDRFSGSGSGTDFTLKISRVEAEDVGVYYCSQNTHVPPTFGQGTKVEIERTVAAPSVFIFPPSDEQLKSGTASVVCLLNNFYPREAKVQWKVDNALQSGNSQESVTEQDSKDSTYSLSSTLTLSKADYEKHKVYACEVTHQGLSSPVTKSFNRGEC
notes: as for B1
B20: GpH7-A5/GpH7-B3 variant K334_08L/GpL16-k0 (antibody, human IgG1, kappa)
heavy 1: not shown
heavy 2: not shown
light: DIVMTQSPLSLPVTPGEPASISCQASESLVHSNRNTYLHWYLQKPGQSPQLLIYKVSNRFSGVPDRFSGSGSGTDFTLKISRVEAEDVGVYYCSQNTHVPPTFGQGTKVEIERTVAAPSVFIFPPSDEQLKSGTASVVCLLNNFYPREAKVQWKVDNALQSGNSQESVTEQDSKDSTYSLSSTLTLSKADYEKHKVYACEVTHQGLSSPVTKSFNRGEC
notes: as for B1
B21: GpH7-A5/GpH7-B3 variant K334_16H/GpL16-k0 (antibody, human IgG1, kappa)
heavy 1: not shown
heavy 2: not shown
light: DIVMTQSPLSLPVTPGEPASISCQASESLVHSNRNTYLHWYLQKPGQSPQLLIYKVSNRFSGVPDRFSGSGSGTDFTLKISRVEAEDVGVYYCSQNTHVPPTFGQGTKVEIERTVAAPSVFIFPPSDEQLKSGTASVVCLLNNFYPREAKVQWKVDNALQSGNSQESVTEQDSKDSTYSLSSTLTLSKADYEKHKVYACEVTHQGLSSPVTKSFNRGEC
notes: as for B1
B22: GpH7-A5/GpH7-B3 variant S337_09D/GpL16-k0 (antibody, human IgG1, kappa)
heavy 1: not shown
heavy 2: not shown
light: DIVMTQSPLSLPVTPGEPASISCQASESLVHSNRNTYLHWYLQKPGQSPQLLIYKVSNRFSGVPDRFSGSGSGTDFTLKISRVEAEDVGVYYCSQNTHVPPTFGQGTKVEIERTVAAPSVFIFPPSDEQLKSGTASVVCLLNNFYPREAKVQWKVDNALQSGNSQESVTEQDSKDSTYSLSSTLTLSKADYEKHKVYACEVTHQGLSSPVTKSFNRGEC
notes: as for B1

Molecular target: FcγRIIa H (human FcγRIIa, allotype with His at position 131), extracellular domain with C-terminal His tag (human, UniProt P12318 34-217)
Assay: SPR (Biacore), antibody captured on antigen peptide chip, FcγR as analyte; relative to HeCon Ab GpH7-A5/GpH7-B3/GpL16-k0 = 100

Binder | He/Con_2aH [control = 100]
B1 | 101
B2 | 103
B3 | 102
B4 | 118
B5 | 120
B6 | 105
B7 | 106
B8 | 108
B9 | 106
B10 | 122
B11 | 102
B12 | 111
B13 | 114
B14 | 103
B15 | 113
B16 | 104
B17 | 108
B18 | 116
B19 | 106
B20 | 104
B21 | 104
B22 | 107
